Legend:
[1] = biological target: carboxymethyl lysine conjugated to keyhole limpet hemocyanin (CML-KLH); test: direct binding ELISA, CML-KLH coat 1 ug/mL, antibody at 16.67 ug/mL
[2] = biological target: carboxymethyl lysine conjugated to keyhole limpet hemocyanin (CML-KLH); test: direct binding ELISA, CML-KLH coat 1 ug/mL, antibody at 1.85 ug/mL
[3] = biological target: carboxymethyl lysine conjugated to keyhole limpet hemocyanin (CML-KLH); test: direct binding ELISA, CML-KLH coat 1 ug/mL, antibody at 0.21 ug/mL
[4] = biological target: carboxymethyl lysine conjugated to keyhole limpet hemocyanin (CML-KLH); test: direct binding ELISA, CML-KLH coat 1 ug/mL, antibody at 0.07 ug/mL
[5] = biological target: carboxymethyl lysine conjugated to keyhole limpet hemocyanin (CML-KLH); test: direct binding ELISA, CML-KLH coat 1 ug/mL, antibody at 0.62 ug/mL
[6] = biological target: carboxymethyl lysine conjugated to keyhole limpet hemocyanin (CML-KLH); test: direct binding ELISA, CML-KLH coat 1 ug/mL, antibody at 50 ug/mL
[7] = biological target: carboxymethyl lysine conjugated to keyhole limpet hemocyanin (CML-KLH); test: direct binding ELISA, CML-KLH coat 1 ug/mL, antibody at 5.56 ug/mL

OD450 absorbance [1]: 0.312 OD450
OD450 absorbance [2]: 0.092 OD450
OD450 absorbance [3]: 0.075 OD450
OD450 absorbance [4]: 0.086 OD450
OD450 absorbance [5]: 0.083 OD450
OD450 absorbance [6]: 0.462 OD450
OD450 absorbance [7]: 0.165 OD450
Substance: anti-carboxymethyl lysine (CML) antibody (R&D Systems, MAB3247)
